This experiment addresses T1, Smc5(G1054C) (S. cerevisiae, UniProt Q08204 1-1093, G1054C).
T1 construct: Smc5, S. cerevisiae; subunit of the Smc5/6 hexamer; Stood in the assay as a subunit of the purified Smc5/6 hexamer (Smc5, Smc6, Nse1-4); also called Smc5 with the engineered cysteine of the Smc5/Nse4 interface
T1 sequence (looked up): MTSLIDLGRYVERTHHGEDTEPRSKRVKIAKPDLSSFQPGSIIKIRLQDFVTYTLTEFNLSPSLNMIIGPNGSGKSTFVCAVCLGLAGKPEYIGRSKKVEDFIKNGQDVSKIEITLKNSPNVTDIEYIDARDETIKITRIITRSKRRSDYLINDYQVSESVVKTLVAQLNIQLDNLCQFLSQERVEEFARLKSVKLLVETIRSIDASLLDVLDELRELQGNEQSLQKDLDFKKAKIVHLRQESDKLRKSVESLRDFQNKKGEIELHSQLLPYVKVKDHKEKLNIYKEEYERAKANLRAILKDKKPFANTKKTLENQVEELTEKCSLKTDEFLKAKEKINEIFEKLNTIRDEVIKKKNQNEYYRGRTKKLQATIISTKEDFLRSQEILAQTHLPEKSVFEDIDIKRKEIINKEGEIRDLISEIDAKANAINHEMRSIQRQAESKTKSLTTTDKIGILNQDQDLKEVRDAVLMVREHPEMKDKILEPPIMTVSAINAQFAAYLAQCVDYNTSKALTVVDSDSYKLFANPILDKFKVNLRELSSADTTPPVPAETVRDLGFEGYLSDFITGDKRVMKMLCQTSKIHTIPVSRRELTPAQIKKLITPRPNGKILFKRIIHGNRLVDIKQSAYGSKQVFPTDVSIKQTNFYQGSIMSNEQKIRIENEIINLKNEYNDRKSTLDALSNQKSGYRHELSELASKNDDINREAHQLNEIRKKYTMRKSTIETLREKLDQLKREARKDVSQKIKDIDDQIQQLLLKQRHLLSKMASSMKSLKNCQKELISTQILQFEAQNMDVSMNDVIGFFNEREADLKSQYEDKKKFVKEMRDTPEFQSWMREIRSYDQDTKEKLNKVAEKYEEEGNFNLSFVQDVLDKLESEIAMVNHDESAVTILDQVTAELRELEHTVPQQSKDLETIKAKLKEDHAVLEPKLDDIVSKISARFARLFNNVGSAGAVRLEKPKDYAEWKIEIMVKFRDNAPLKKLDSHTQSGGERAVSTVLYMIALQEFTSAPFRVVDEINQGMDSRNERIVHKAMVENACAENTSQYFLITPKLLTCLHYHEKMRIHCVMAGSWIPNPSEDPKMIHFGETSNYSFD
The experiment can be described thus: cross-linking; as a1 with the Nse5/6 dimer added in 1.25 x molar excess (0.625 uM) to the hexamer; SDS-PAGE, Coomassie. As to conditions: both partners purified.

B1: Nse5/6 dimer (complex, S. cerevisiae)
chain 1: MDGALINSVLYVSPRNGAHYFVELTEKHLLAFEMLNSMCLLENYDHVLLFLECQFGKSHNLAVIPFDIILVLFTLSTLSEYYKEPILRANDPYNTSRETLSRRALKLLQKYLAILKEFDSEQYNLYDLELLRCQFFLAIDTLTPKKQKWGFDRFRRTKSESGVTYRQNASVDPELDQAKTFKNPYRSYISCLEQRNTILGNRLLNLKLNEPGEFINMILWTLSNSLQESTPLFLSSHEIWMPLLEILIDLFSCRQDYFIQHEVAQNVSKSLFVQRLSESPLAVFFESLNTRNFANRFSEYVFLNCDYKLPSDNYATPVHPVYNGENTIVDTYIPTIKCSPLYKSQKSLALRRKLIGSCFKLLLRVPDGHRLITPRIVADDVIQGISRTLASFNDILQFKKFFMTENLSQESYFIPLLAEGTLSEILKDTQECVVILTLVENLSDGVSFCNEVIGLVKSKCFAFTEQCSQASYEEAVLNIEKCDVCLLVLLRYLLHLIGTEAILDAKEQLEMLHAIEKNDSGRRQWAKALNLGNDPPLLYPIVSQMFGVHDKSVIIE
chain 2: MGSVNSSPNEEFETVPDSQISGFDSPLIPTSVGSYFRDDDDDEKVHPNFISDPENDSLNSDEEFSSLENSDLNLSGAKAESGDDFDPILKRTIISKRKAPSNNEDEEIVKTPRKLVNYVPLKIFNLGDSFDDTITTTVAKLQDLKKEILDSPRSNKSIVITSNTVAKSELQKSIKFSGSIPEIYLDVVTKETISDKYKDWHFISKNCHYEQLMDLEMKDTAYSFLFGSSRSQGKVPEFVHLKCPSITNLLVLFGVNQEKCNSLKINYEKKENSRYDNLCTIFPVNKMLKFLMYFYSDDDNDDVREFFLKAFICLILDRKVFNAMESDHRLCFKVLELFNEAHFINSYFEIVDKNDFFLHYRLLQIFPHLQSALLRRRFSEKQGRTETIQQNIIKEFNEFFDCKNYKNLLYFILTMYGSKFIPFGPKCQVTEYFKDCILDISNETTNDVEISILKGILNLFSKIR
notes: Nse5, S. cerevisiae; a native cysteine of it cross-links to Smc5(G1054C); Nse6, S. cerevisiae; also called Nse5/6 loader; loader Nse5/6
With B1, the binding result is on record as “binds”.

Values taken from article doi:10.1101/2022.10.09.511515, “DNA segment capture by Smc5/6 holo-complexes” (bioRxiv, 2022).
